Assay results as given in patent publication US20090048324A1 (FOX CHASE CANCER CENTER, published 2009).
Numbering of substitutions follows the chain as printed.

Assays:
[1] = target: the molecule itself; experiment: cell-based or functional assay
[2] = target: T1, human PBGS variant F12L (human, UniProt P13716 1-330); experiment: coexpression, Q-Sepharose chromatography
T1 construct: Hexamer in the crystal structure (PDB 1PV8); tetramer/hexamer mix in sedimentation equilibrium; also called F12L hexamer
T1 chain: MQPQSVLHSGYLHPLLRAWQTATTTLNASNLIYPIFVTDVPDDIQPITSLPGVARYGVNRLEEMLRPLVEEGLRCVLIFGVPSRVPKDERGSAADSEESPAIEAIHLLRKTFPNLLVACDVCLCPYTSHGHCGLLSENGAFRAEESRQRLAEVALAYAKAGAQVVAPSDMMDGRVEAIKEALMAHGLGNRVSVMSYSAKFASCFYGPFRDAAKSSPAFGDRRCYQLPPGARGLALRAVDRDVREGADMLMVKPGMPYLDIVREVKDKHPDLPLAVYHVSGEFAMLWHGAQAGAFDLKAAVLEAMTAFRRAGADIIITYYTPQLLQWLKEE

[3] = target: the molecule itself; experiment: purification and dialysis against magnesium

B1: pea (Pisum sativum) porphobilinogen synthase (enzyme, Pisum sativum (pea), UniProt P30124 69-398, looked up)
chain: SLPIQRRPRRNRRSPALRSAFQETTLSPANFVYPLFIHEGEEDTPIGAMPGCYRLGWRHGLLEEVAKARDVGVNSVVLFPKIPDALKTPTGDEAYNEDGLVPRSIRLLKDKYPDLIIYTDVALDPYSSDGHDGIVREDGVIMNDETVHQLCKQAVAQARAGADVVSPSDMMDGRVGAMRVALDAEGFQHVSIMSYTAKYASSFYGPFREALDSNPRFGDKKTYQMNPANYREALTEMREDESEGADILLVKPGLPYLDIIRLLRDNSPLPIAAYQVSGEYSMIKAGGALKMIDEEKVMMESLLCLRRAGADIILTYFALQAARTLCGEKR
- EC50 (read off the curve), specific activity against pea PBGS subunit concentration [1]: ~30 nM

B2: wild type human porphobilinogen synthase (PBGS), parent construct N59/C162A (enzyme)
chain: T1 chain with L12F
notes: Homo-oligomer, predominantly an octamer; also called Wt; WT
- binding result [2]: binds

B3: Pseudomonas aeruginosa porphobilinogen synthase (enzyme)
chain: MSFTPANRAYPYTRLRRNRRDDFSRRLVRENVLTVDDLILPVFVLDGVNQRESIPSMPGVERLSIDQLLIEAEEWVALGIPALALFPVTPVEKKSLDAAEAYNPEGIAQRATRALRERFPELGIITDVALDPFTTHGQDGILDDDGYVLNDVSIDVLVRQALSHAEAGAQVVAPSDMMDGRIGAIREALESAGHTNVRIMAYSAKYASAYYGPFRDAVGSASNLGKGNKATYQMDPANSDEALHEVAADLAEGADMVMVKPGMPYLDIVRRVKDEFRAPTFVYQVSGEYAMHMGAIQNGWLAESVILESLTAFKRAGADGILTYFAKQAAEQLRRGR
notes: Purified as a dimer without magnesium and converted to the octamer by dialysis against magnesium; also called P. aeruginosa PBGS
- binding result [3]: binds
